The results in this text go back to patent US20210238260.

T1: Factor VIIIa (FVIIIa), P00451
T1 chain: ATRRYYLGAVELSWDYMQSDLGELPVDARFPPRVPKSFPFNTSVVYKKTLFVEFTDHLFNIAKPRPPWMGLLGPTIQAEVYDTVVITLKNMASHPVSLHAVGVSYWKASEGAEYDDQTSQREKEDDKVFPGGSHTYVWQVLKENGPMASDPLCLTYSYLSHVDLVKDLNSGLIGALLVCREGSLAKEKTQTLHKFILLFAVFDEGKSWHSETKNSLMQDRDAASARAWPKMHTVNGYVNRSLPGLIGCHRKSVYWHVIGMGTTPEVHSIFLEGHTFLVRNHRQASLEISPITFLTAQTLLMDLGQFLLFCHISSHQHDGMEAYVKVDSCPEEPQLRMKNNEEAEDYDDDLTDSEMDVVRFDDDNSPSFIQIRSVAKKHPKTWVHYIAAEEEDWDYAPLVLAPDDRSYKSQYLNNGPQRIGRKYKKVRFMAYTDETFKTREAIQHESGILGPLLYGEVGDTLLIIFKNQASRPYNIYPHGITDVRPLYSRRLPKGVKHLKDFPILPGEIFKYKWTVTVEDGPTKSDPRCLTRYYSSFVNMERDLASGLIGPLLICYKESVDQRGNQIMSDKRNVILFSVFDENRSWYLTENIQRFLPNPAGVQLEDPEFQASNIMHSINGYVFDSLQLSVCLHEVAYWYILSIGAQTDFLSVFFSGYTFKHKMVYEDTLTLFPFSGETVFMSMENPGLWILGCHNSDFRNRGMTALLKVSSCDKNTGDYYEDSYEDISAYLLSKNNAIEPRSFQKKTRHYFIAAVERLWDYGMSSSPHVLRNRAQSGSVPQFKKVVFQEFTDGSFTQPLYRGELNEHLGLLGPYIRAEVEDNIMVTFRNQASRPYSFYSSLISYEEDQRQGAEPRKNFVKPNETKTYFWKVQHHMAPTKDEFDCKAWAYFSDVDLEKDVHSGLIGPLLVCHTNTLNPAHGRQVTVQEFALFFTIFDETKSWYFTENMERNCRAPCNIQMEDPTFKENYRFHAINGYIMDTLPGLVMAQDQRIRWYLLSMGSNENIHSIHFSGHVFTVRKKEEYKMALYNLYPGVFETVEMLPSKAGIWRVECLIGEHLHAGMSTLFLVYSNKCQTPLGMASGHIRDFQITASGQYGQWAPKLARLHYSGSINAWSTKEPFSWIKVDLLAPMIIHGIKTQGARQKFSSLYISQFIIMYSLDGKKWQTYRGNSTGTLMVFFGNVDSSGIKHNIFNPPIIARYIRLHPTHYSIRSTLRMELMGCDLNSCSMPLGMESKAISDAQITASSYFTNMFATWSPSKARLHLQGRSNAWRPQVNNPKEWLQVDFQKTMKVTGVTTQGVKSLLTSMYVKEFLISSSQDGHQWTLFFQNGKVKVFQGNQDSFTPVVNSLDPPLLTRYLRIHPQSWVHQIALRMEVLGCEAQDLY

B1: FIX of SEQ ID NO: 394, with the replacements R318Y/R338E/T343R (activated, FIXa) (protein)
chain 1: YNSGKLEEFVQGNLERECMEEKCSFEEAREVFENTERTTEFWKQYVDGDQCESNPCLNGGSCKDDINSYECWCPFGFEGKNCELDVTCNIKNGRCEQFCKNSADNKVVCSCTEGYRLAENQKSCEPAVPFPCGRVSVSQTSKLTR
chain 2: VVGGEDAKPGQFPWQVVLNGKVDAFCGGSIVNEKWIVTAAHCVETGVKITVVAGEHNIEETEHTEQKRNVIRIIPHHNYNAAINKYNHDIALLELDEPLVLNSYVTPICIADKEYTNIFLKFGSGYVSGWGRVFHKGYSALVLQYLRVPLVDRATCLESTKFRIYNNMFCAGFHEGGRDSCQGDSGGPHVTEVEGTSFLTGIISWGEECAMKGKYGIYTKVSRYVNWIKEKTKLT
B2: FIXa-D104N/K106S/N260S/R318Y/R338E/R403E/E410N (protein)
chain 1: B1 chain 1 with D104N, K106S
chain 2: B1 chain 2 with N80S, R163T, R223E, E230N
B3: FIXa-D104N/K106S/K228N/K247N/N249S (protein)
chain 1: B1 chain 1 with D104N, K106S
chain 2: B1 chain 2 with K48N, K67N, N69S, Y138R, E158R, R163T
B4: FIXa-K228N/K247N/N249S/R318Y/R338E/R403E/E410N (protein)
chain 1: B1 chain 1
chain 2: B1 chain 2 with K48N, K67N, N69S, R163T, R223E, E230N
B5: FIXa-R318Y/R338E/R403E/E410N/T412V (protein)
chain 1: B1 chain 1
chain 2: B1 chain 2 with R163T, R223E, E230N, T232V
B6: FIXa-R318Y/R338E/E410N/T412V (protein)
chain 1: B1 chain 1
chain 2: B1 chain 2 with R163T, E230N, T232V
B7: FIXa-R318Y/R338E/R403E/E410S (protein)
chain 1: B1 chain 1
chain 2: B1 chain 2 with R163T, R223E, E230S
B8: FIXa-R318Y/R338E/R403E/E410N/T412A (protein)
chain 1: B1 chain 1
chain 2: B1 chain 2 with R163T, R223E, E230N, T232A
B9: FIXa-N260S/R318Y/R338E/R403E/E410N (protein)
chain 1: B1 chain 1
chain 2: B1 chain 2 with N80S, R163T, R223E, E230N
B10: FIXa-Y155F/R318Y/R338E/N346D/R403E/E410N (protein)
chain 1: B1 chain 1
chain 2: B1 chain 2 with R163T, N166D, R223E, E230N
B11: FIXa-K228N/K247N/N249S (protein)
chain 1: B1 chain 1
chain 2: B1 chain 2 with K48N, K67N, N69S, Y138R, E158R, R163T
B12: FIXa-D104N/K106S/I251S/R318Y/R338E/E410N (protein)
chain 1: B1 chain 1 with D104N, K106S
chain 2: B1 chain 2 with I71S, R163T, E230N
B13: FIXa-R318Y/R338E/E410S (protein)
chain 1: B1 chain 1
chain 2: B1 chain 2 with R163T, E230S
B14: FIXa-Y259F/K265T/Y345T (protein)
chain 1: B1 chain 1
chain 2: B1 chain 2 with Y79F, K85T, Y138R, E158R, R163T, Y165T

Changes are numbered by the printed parent chain. Names and notes keep the numbering of the source. A value given as a limit tells only on which side of the number the result lay.

Sequence of Factor X, P00742 (P00742 whole entry, looked up): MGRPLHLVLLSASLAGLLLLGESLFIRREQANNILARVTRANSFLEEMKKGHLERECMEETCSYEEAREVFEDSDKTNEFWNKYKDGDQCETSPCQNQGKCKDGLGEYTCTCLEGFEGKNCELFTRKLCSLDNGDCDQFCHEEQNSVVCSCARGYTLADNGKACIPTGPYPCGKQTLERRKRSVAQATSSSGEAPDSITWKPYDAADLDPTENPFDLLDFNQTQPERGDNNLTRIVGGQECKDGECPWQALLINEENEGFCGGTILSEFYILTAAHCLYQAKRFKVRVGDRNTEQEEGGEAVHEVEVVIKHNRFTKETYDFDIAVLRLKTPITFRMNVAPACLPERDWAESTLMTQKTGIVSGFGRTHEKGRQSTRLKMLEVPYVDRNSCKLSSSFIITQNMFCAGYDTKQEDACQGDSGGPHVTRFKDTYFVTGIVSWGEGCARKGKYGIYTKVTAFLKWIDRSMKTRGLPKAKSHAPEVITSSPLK
Sequence of Factor X (FX), P00742 (P00742 whole entry, looked up): as above

The first data set has as its target T1, Factor VIIIa (FVIIIa), P00451.
Assay: not given
In turn, B1 yielded an FIX activity, mean, Test 1, FVIIIa 0 ng/mL (no cofactor, baseline) of 1.24; an FIX activity, mean, Test 1, FVIIIa 5 ng/mL of 278; an FIX activity, mean, Test 2, FVIIIa 0 ng/mL (no cofactor, baseline) of 1.25; an FIX activity, mean, Test 2, FVIIIa 10 ng/mL of 479. This protein came in with an FIX activity, mean, Test 3, FVIIIa 0 ng/mL (no cofactor, baseline) of 1.28; an FIX activity, mean, Test 3, FVIIIa 15 ng/mL of 622; a Fold-increase after FVIIIa addition, Test 1 (5 ng/mL) of 225 fold; a Fold-increase after FVIIIa addition, Test 2 (10 ng/mL) of 384 fold. Also, the Fold-increase after FVIIIa addition, Test 3 (15 ng/mL) amounted to 486 fold; the Ratio (CB2679d vs BeneFIX FIX) of FIX activity, Test 1, FVIIIa 0 ng/mL (no cofactor) is 1.3; the Ratio (CB2679d vs BeneFIX FIX) of FIX activity, Test 1, FVIIIa 5 ng/mL stood at 2; the Ratio (CB2679d vs BeneFIX FIX) of FIX activity, Test 2, FVIIIa 0 ng/mL (no cofactor) worked out at 1.4. The Ratio (CB2679d vs BeneFIX FIX) of FIX activity, Test 2, FVIIIa 10 ng/mL was determined as 2; the Ratio (CB2679d vs BeneFIX FIX) of FIX activity, Test 3, FVIIIa 0 ng/mL (no cofactor) was 1.3; the Ratio (CB2679d vs BeneFIX FIX) of FIX activity, Test 3, FVIIIa 15 ng/mL came to 2.

A further data set concerns the target Factor X (FX), P00742.
Assay: not given
B1: the Cofactor-Dependent Indirect kcat/KM is 1.2e+08 M⁻¹ s⁻¹; the Fold Change, In Vitro Assays: Pro-coagulant Activity worked out at 2.8 fold; the Fold Increase over BeneFIX FIX (Cofactor-Dependent Indirect kcat/KM) came to 2.8 fold.

Take B2: the KM (commonly the substrate concentration at which the rate is half of its maximum) came out at 0.0611 µM and the kcat of FX activation by FIXa (Xase complex with FVIIIa, PC/PS vesicles, Ca2+) turned out to be 5.4 s⁻¹.

B3: the kcat (as a rule, the number of substrate molecules converted per active site and unit of time at saturation) is 1.7 s⁻¹; the kcat of FX activation by FIXa (Xase complex with FVIIIa, PC/PS vesicles, Ca2+) was 1.7 s⁻¹.

As for B4, the Michaelis-Menten constant (KM) is 0.0558 µM and the kcat of FX activation by FIXa (Xase complex with FVIIIa, PC/PS vesicles, Ca2+) worked out at 7.1 s⁻¹.

With B5, the KM worked out at 0.0443 µM and the kcat of FX activation by FIXa (Xase complex with FVIIIa, PC/PS vesicles, Ca2+) came to 7 s⁻¹.

Regarding B6, the Michaelis-Menten constant (KM) was found to be 0.0297 µM and the kcat of FX activation by FIXa (Xase complex with FVIIIa, PC/PS vesicles, Ca2+) stood at 5.2 s⁻¹.

In the case of B7, the “% of WT kcat/KM” value was determined as 458%; the turnover number (kcat) turned out to be 5.8 s⁻¹; the kcat of FX activation by FIXa (Xase complex with FVIIIa, PC/PS vesicles, Ca2+) amounted to 7.4 s⁻¹; the kcat/KM – broadly, the turnover number divided by the Michaelis constant – turned out to be 2.1e+08 M⁻¹ s⁻¹.

In the case of B8, the KM came out at 0.0335 µM and the kcat of FX activation by FIXa (Xase complex with FVIIIa, PC/PS vesicles, Ca2+) was found to be 7.8 s⁻¹.

B9: the Michaelis constant (KM) is 0.0724 µM and the kcat of FX activation by FIXa (Xase complex with FVIIIa, PC/PS vesicles, Ca2+) worked out at 3.8 s⁻¹.

Turning to B10, the KM was 0.1 µM and the kcat of FX activation by FIXa (Xase complex with FVIIIa, PC/PS vesicles, Ca2+) was 6.4 s⁻¹.

Another data set concerns the target Factor X, P00742.
Assay: not given
As to B11, the “% of WT kcat/KM” value was 86%, the Michaelis-Menten constant (KM) was 0.0945 µM and the specificity constant (kcat/KM) is 3.8e+07 M⁻¹ s⁻¹.

In the case of B2, the “% of WT kcat/KM” value was found to be 196%, the catalytic constant (kcat) amounted to 5.4 s⁻¹ and the kcat/KM was 8.8e+07 M⁻¹ s⁻¹.

For the protein B12, the “% of WT kcat/KM” value stood at 300%, the KM is 0.0243 µM and the kcat/KM was determined as 1.3e+08 M⁻¹ s⁻¹.

Consider B4, for which the “% of WT kcat/KM” value came out at 258%, the catalytic constant (kcat) amounted to 6.1 s⁻¹ and the kcat/KM was 1.2e+08 M⁻¹ s⁻¹.

Take B5: the “% of WT kcat/KM” value was 424%, the kcat was found to be 7.9 s⁻¹ and the kcat/KM came to 1.9e+08 M⁻¹ s⁻¹.

As to B13, the “% of WT kcat/KM” value amounted to 730%, the Michaelis-Menten constant (KM) came to 0.0164 µM and the specificity constant (kcat/KM) was found to be 3.3e+08 M⁻¹ s⁻¹.

With B6, the “% of WT kcat/KM” value turned out to be 536%, the catalytic constant (kcat) was found to be 6.3 s⁻¹ and the kcat/KM came out at 2.4e+08 M⁻¹ s⁻¹.

For B7, the “% of WT kcat/KM” value amounted to 401%, the Michaelis constant (KM) amounted to 0.0351 µM and the kcat/KM was 1.8e+08 M⁻¹ s⁻¹.

For the protein B8, the “% of WT kcat/KM” value came out at 577%, the kcat is 8.4 s⁻¹ and the kcat/KM was determined as 2.6e+08 M⁻¹ s⁻¹.

Regarding B9, the “% of WT kcat/KM” value is given as 117%, the catalytic constant (kcat) is 3.8 s⁻¹ and the kcat/KM worked out at 5.3e+07 M⁻¹ s⁻¹.

Regarding B10, the “% of WT kcat/KM” value was 139%, the kcat came to 6.4 s⁻¹ and the kcat/KM is 6.2e+07 M⁻¹ s⁻¹.

A further data set concerns the target T2, plasma purified human antithrombin III (AT-III), as complex with unfractionated heparin. As to the kind of experiment: ratio of K0.5 (lower limit) to Catalyst Biosciences WT FIXa, AT-III/UFH inhibition.
For B2, the K0.5-mut/K0.5-wt was 517.

Regarding B4, the K0.5-mut/K0.5-wt is 517.

With B5, the K0.5-mut/K0.5-wt came to 517.

In the case of B6, the K0.5-mut/K0.5-wt came to 517.

As to B7, the K0.5-mut/K0.5-wt came to 517.

As to B8, the K0.5-mut/K0.5-wt stood at 517.

With B9, the K0.5-mut/K0.5-wt is 517.

For B10, the K0.5-mut/K0.5-wt stood at 517.

A further data set addresses plasma purified human AT-III (antithrombin III). As to the kind of experiment: AT-III/UFH inhibition K0.5, ratio to Catalyst Biosciences WT FIXa.
On to B11, for which the K0.5-mut/K0.5-wt came out at 4.4.

With B2, the K0.5-mut/K0.5-wt is greater than 517.

Take B3: the K0.5-mut/K0.5-wt was 2.1.

Take B12: the K0.5-mut/K0.5-wt came to 464.

As to B14, the K0.5-mut/K0.5-wt was determined as 0.3.

With B4, the K0.5-mut/K0.5-wt is greater than 517.

B5: the K0.5-mut/K0.5-wt was greater than 517.

For B13, the K0.5-mut/K0.5-wt was determined as 279.

Turning to B6, the K0.5-mut/K0.5-wt stood at 252.

As to B7, the K0.5-mut/K0.5-wt is greater than 517.

With B8, the K0.5-mut/K0.5-wt was greater than 517.

In the case of B9, the K0.5-mut/K0.5-wt was greater than 517.

Turning to B10, the K0.5-mut/K0.5-wt is greater than 517.

Another data set has as its target T2, plasma purified human antithrombin III …. Briefly: ratio of K0.5 to Catalyst Biosciences WT FIXa, AT-III/UFH inhibition.
B11: the K0.5-mut/K0.5-wt turned out to be 4.4.

For B3, the K0.5-mut/K0.5-wt stood at 2.1.

Take B12: the K0.5-mut/K0.5-wt came to 464.

For the protein B14, the K0.5-mut/K0.5-wt was 0.3.

For the protein B13, the K0.5-mut/K0.5-wt was 279.
